7 molecules from patent publication US11340215B2, “Screening method of anticancer agent focused on function of HP1 and evaluation system” (JAPANESE FOUNDATION FOR CANCER RESEARCH, priority 2016, dated 2022) can be followed below.

Changes are numbered by the printed parent chain.

Assay [1] deals with T1, Aurora B (Homo sapiens, UniProt Q96GD4). Kind of assay: In vitro kinase assay with recombinant INCENP, Aurora B and HP1. The conditions noted are these: for activation of Aurora B: recombinant proteins, 1 μM HP1. In kind it is biochemical. On the procedure: The kinase assay was carried out by adding a substrate in a kinase buffer (20 mM Tris-HCl, 50 mM MgCl2, 100 mM NaCl, 20 μM ATP, pH7.5) and 0.2 mCi/ml[γ^− ^32P]ATP. As the substrate, GST-Hec1 (1-80) or recombinant histones H3 (manufactured by New England Biolas) was used. Twenty nM INCENP and 120 nM GST-Aurora B were reacted in the presence or absence of 1 μM HP1 at 30° C. for 20 minutes and the reaction was terminated by Laemmli sample buffer. Phosphorylation was analyzed by Typhoon scanner (manufactured by GE Healthcare) and a liquid scintillation counter.
Using recombinant proteins of INCENP, Aurora B and HP1α, in vitro kinase assay was carried out (FIG. 6C). […] Accordingly, it was shown that physical binding of HP1 to INCENP is required for activation of Aurora B, and that HP1 has an allosteric effect on Aurora B.
Then, enzyme kinetics analysis of Aurora B was carried out. […] Further, analysis of proteins binding to GST-Aurora B was carried out by the GST pull down assay. As a result, the amount of Hec1 binding to GST-Aurora B increased in the conditions where HP1 can bind to INCENP. […] Accordingly, binding of HP1α to INCENP is required for activating Aurora B.
Target sequence in this assay (Q96GD4 whole entry): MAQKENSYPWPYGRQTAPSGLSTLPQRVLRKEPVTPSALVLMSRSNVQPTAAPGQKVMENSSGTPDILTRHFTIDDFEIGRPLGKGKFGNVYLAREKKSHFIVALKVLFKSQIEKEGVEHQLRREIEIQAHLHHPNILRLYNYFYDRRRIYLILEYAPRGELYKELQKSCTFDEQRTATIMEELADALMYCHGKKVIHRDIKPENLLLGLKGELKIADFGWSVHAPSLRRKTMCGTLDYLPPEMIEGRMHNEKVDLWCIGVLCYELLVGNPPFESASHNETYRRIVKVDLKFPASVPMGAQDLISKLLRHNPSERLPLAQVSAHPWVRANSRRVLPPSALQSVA
Target sequence in this assay (Q9NQS7 whole entry partner): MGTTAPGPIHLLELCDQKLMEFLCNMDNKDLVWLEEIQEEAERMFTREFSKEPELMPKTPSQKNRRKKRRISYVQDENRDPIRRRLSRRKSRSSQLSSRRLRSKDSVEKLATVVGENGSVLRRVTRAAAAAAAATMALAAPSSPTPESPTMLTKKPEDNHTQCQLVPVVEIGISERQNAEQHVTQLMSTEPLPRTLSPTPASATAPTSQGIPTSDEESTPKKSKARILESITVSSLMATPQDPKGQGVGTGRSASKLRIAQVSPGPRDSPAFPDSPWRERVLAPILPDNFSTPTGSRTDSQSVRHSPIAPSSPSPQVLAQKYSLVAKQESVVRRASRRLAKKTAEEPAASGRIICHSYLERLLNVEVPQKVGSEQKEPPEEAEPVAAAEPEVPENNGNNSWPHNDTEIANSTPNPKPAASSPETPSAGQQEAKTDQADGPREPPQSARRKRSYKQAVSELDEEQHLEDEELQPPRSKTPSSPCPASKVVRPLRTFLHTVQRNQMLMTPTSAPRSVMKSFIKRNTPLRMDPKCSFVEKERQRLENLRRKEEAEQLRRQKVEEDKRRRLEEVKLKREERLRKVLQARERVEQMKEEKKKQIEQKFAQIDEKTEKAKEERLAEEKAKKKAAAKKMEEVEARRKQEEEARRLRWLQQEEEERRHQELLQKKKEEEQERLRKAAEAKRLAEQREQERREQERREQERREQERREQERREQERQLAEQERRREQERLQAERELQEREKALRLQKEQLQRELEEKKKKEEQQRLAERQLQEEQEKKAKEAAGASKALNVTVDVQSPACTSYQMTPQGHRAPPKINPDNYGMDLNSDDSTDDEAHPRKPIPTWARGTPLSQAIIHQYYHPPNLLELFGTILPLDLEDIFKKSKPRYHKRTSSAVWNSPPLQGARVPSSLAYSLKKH

For assay [2], the target named is T1, Aurora B. Kind of assay: Immunostaining of metaphase cells with anti-HP1α-pS92 antibody. In kind it is cell-based. Also on record: endogenous in cells. To be noted: FIG. 5D. The protocol:
(§1) Cells were cultured on a cover glass and immobilized with 4% paraformaldehyde in PHEM buffer solution (60 mM PIPES, 25 mM HEPES, 10 mM EGTA, 2 mM MgCl2, pH7.0) or PBS, at room temperature. Cells were treated with the above buffer solution containing 0.2 to 1.0% Triton X-100, and blocked with a 3% BSA-containing buffer. Images were obtained by AxiolmagerM1 miacroscope (manufactured by Zeiss) equipped with CoolSNAP HQ camera (manufactured by Photometrics) operated by MetaMorph software (manufactured by MDS Analytical Technologies). The intensity of fluorescence was analyzed by ImageJ software (National Institute of Health).
It was shown that the anti-HP1α-pS92 antibody sensitively detects phosphorylated HP1α even if it is used in immunostaining (FIGS. 5D, E). Cells of the interphase, cells of the metaphase, cells of the metaphase where the expression of HP1α was depleted by siRNA and cells of the metaphase where the activity of Aurora B was suppressed by ZM447439 were immunostained with an anti-HP1α-pS92 antibody (FIG. 5D). Only the metaphase cells used as the control were stained. In the interphase cells, cells where the expression of HP1α was depleted and cells where the activity of Aurora B was suppressed, phosphorylated HP1α was not detected.
Target sequence in this assay (Q96GD4 whole entry): as the sequence (Q96GD4 whole entry) above
Target sequence in this assay (Q9NQS7 whole entry partner): as the sequence (Q9NQS7 whole entry partner) above
Target sequence in this assay (O15392 whole entry partner): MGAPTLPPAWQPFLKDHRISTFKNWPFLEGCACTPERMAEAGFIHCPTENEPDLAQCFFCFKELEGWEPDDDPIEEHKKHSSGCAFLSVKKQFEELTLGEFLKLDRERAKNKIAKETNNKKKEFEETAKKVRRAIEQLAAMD
Target sequence in this assay (Q53HL2 whole entry partner): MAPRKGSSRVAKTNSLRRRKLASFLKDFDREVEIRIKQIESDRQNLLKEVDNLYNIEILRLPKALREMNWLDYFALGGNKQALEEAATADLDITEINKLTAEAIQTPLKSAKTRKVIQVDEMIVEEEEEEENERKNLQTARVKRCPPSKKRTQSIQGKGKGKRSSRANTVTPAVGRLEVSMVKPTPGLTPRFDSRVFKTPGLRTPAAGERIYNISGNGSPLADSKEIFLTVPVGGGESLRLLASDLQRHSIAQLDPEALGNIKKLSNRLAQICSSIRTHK

In assay [3] the target is T1, Aurora B. The experiment in a line: Phosphorylation of Aurora B substrates in HeLa cells, fluorescence microscopy with phospho-specific antibodies. It counts as cell-based. Also on record: endogenous in cells; host or cells: HeLa. The protocol:
as §1
Target sequence in this assay (Q96GD4 whole entry): as the sequence (Q96GD4 whole entry) above
Target sequence in this assay (Q9NQS7 whole entry partner): as the sequence (Q9NQS7 whole entry partner) above
Target sequence in this assay (O15392 whole entry partner): as the sequence (O15392 whole entry partner) above
Target sequence in this assay (Q53HL2 whole entry partner): as the sequence (Q53HL2 whole entry partner) above
Next, activation of Aurora B was analyzed based on degree of phosphorylation of a substrate. HeLa cells were transfected with siRNA of all subtypes of HP1 to inhibit expression of all HP1 subtypes. […] The cells were immobilized and then analyzed by a fluorescence microscope using an antibody recognizing phosphorylation of serine at position 10 of histone H3 (H3-pS10, 6G3, manufactured by Cell Signaling Technology) (FIG. 4B); an antibody recognizing phosphorylation of serine at position 44 of Hec1 (Hec1-pS44, Non Patent Literature 8); an Hec1 antibody (9G3.23, manufactured by Novus Biologicals) (FIG. 4C); and an antibody recognizing phosphorylation of serine at position 100 of Dsn1 (Dsn-pS100, Non Patent Literature 9) (FIG. 4D).

Assay [4] deals with T1, Aurora B. The experiment in a line: Kinase activity of fractions immunoprecipitated with anti-HP1α-pS92 antibody or INCENP antibody. It counts as biochemical. The arrangement: endogenous in cells. To be noted: addition of inhibitor. The protocol:
The cells in the mitotic phase were incubated in a solution, which was prepared by adding 1 U/μl OmniCleave Endonuclease (manufactured by Epicentre) in the above immunoprecipitation buffer, at 4° C. for 30 minutes. The solution was centrifuged at 4° C. and 15,000 rpm for 10 minutes and the supernatant was further centrifuged. The resultant supernatant was used for immunoprecipitation. Protein A-Sepharose (manufactured by Bio-Rad) having an antibody bound thereto, was allowed to react with cell extracts and subjected to immunoprecipitation. The sample obtained by immunoprecipitation was subjected to the immunoblotting using peroxidase-labeled Mouse TrueBlot ULTRA or Rabbit TrueBlot (manufactured by eBioscience) as a secondary antibody.
The kinase assay was carried out by adding a substrate in a kinase buffer (20 mM Tris-HCl, 50 mM MgCl2, 100 mM NaCl, 20 μM ATP, pH7.5) and 0.2 mCi/ml[γ^− ^32P]ATP. […] Phosphorylation was analyzed by Typhoon scanner (manufactured by GE Healthcare) and a liquid scintillation counter.
Next, we will describe that the binding of HP1 to CPC is necessary for activating Aurora B. Immunoprecipitation was carried out with anti-HP1α-pS92 antibody and INCENP antibody and proteins constituting CPC and subtypes of HP1 were analyzed by immunoblotting (FIG. 5H, left panel). […]
Target sequence in this assay (Q96GD4 whole entry): as the sequence (Q96GD4 whole entry) above
Target sequence in this assay (Q9NQS7 whole entry partner): as the sequence (Q9NQS7 whole entry partner) above
Target sequence in this assay (O15392 whole entry partner): as the sequence (O15392 whole entry partner) above
Target sequence in this assay (Q53HL2 whole entry partner): as the sequence (Q53HL2 whole entry partner) above

The next assay concerns the target T2, HP1α (Homo sapiens, UniProt P45973).
T2 construct: His tag or GST tag
The experiment in a line: Binding assay of INCENP (positions 121 to 270) and HP1α by isothermal titration calorimetry. On the procedure: Wild type HP1α and a region at positions 121 to 270 in INCENP (SEQ ID NO: 8, INCENP WT) were used in the binding assay. The region at positions 121 to 270 in INCENP contains an important motif […], required for binding to HP1. A mutant (SEQ ID NO: 9, INCENP 3A) was obtained by substituting three amino acids in this region with alanine residues and used as a control. A dissociation constant thereof was determined by isothermal titration calorimetry. As an isothermal titration calorimetry apparatus, any device may be used. For example, using MicroCal iTC2000 system (manufactured by GE healthcare biosciences), measurement may be carried out, in accordance with a conventional method.
The above peptides, to which His tag or GST tag was attached, were subjected to isothermal titration calorimetry to determine a dissociation constant. Note that, the dissociation constant was computationally obtained based on average values of 5 experiments.
Background: Isothermal titration calorimetry measures the heat released or taken up as one component is titrated into another.

T2 sequence (P45973 whole entry): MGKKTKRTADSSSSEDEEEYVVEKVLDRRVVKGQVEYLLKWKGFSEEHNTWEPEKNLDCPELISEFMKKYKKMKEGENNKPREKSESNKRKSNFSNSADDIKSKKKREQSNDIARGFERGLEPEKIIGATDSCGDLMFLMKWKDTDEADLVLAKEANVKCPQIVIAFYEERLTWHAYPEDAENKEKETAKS

As for “HP1γ: heterochromatin protein 1 subtype γ”, the “activation of Aurora B” value with Aurora B [1] is “highly activate”.
As for “HP1β: heterochromatin protein 1 subtype β”, the “activation of Aurora B” value in the assay with Aurora B [1] is listed as “highly activate”.
For the molecule “HP1 mutant I165E: HP1 mutant which cannot form a dimer, cannot bind to INCENP”, in the assay with Aurora B [1], the “activation of Aurora B” value is “does not activate”.
As to “HP1α: recombinant heterochromatin protein 1 subtype α”, in the assay with Aurora B [1] (enzyme kinetics analysis, FIG. 6G), the “reaction rate of substrate phosphorylation by Aurora B per unit time” value was “significantly increases”. Also, the “activation of Aurora B” value with Aurora B [1] is “highly activate”.
In the case of `COc1cc2c(Nc3ccc(NC(=O)c4ccccc4)cc3)ncnc2cc1OCCCN1CCOCC1` [ZM447439], the “phosphorylated HP1α detected by immunostaining” value at Aurora B [2] is “not detected”. In addition, at Aurora B [3] (FIGS. 4B to 4D legend), the “Phosphorylation by Aurora B of substrates (H3, Hec1, Dsn1)” value is reported as “suppressed”. For the same molecule, the “effect on phosphorylation of Hec1 and Dsn1” value on Aurora B [3] (HeLa cells, low concentration (0.4 μM)) is “suppressive effect equal to the effect produced by depletion of HP1”. The “kinase activities of the fractions obtained by immunoprecipitation with the anti-HP1α-pS92 antibody and the INCENP antibody” value at Aurora B [4] is reported as “inhibited”.

B1: INCENP 3A: mutant (SEQ ID NO: 9) obtained by substituting three amino acids of the P×V×I motif with alanine residues (protein)
chain: LRRVTRAAAAAAAATMALAAPSSPTPESPTMLTKKPEDNHTQCQLVAVAEAGISERQNAEQHVTQLMSTEPLPRTLSPTPASATAPTSQGIPTSDEESTPKKSKARILESITVSSLMATPQDPKGQGVGTGRSASKLRIAQVSPGPRDSP
modifications: HP1 binding site mutant
Regarding B1, the “binding to HP1” value with HP1α was “does not bind to HP1”.

B2: INCENP WT: region at positions 121 to 270 in INCENP (SEQ ID NO: 8), with His tag or GST tag (protein, listed as Homo sapiens)
chain: B1 chain with A47P, A49V, A51I
modifications: His tag or GST tag
In the case of B2, in the assay with HP1α (binding to wild type HP1α, isothermal titration calorimetry, His tag or GST tag peptides), the Binding entry is “◯”.
